Source: publication PMC11786515, “CitGATA7 interact with histone acetyltransferase CitHAG28 to promote citric acid degradation by regulating the glutamine synthetase pathway in citrus”

T1: CitGATA7 (Citrus, UniProt A0ACB8JKI3 1-185)
T1 sequence: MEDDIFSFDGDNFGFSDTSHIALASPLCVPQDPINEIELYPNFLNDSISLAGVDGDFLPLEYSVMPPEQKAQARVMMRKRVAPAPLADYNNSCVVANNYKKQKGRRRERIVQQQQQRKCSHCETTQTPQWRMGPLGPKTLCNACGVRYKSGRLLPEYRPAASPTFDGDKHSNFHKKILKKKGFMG

B1: CitGS1 promoter probe WT (dsDNA)
DNA 1: GCACACCATCTCGATCAGGTGGTAATTTTG
DNA 2: CAAAATTACCACCTGATCGAGATGGTGTGC
B2: CitIDH1 promoter probe WT (dsDNA)
DNA 1: CATTAAATTCCACATCATCTAATATG
DNA 2: CATATTAGATGATGTGGAATTTAATG
B3: CitACO3 promoter probe WT (dsDNA)
DNA 1: TCCCATAAAAAAAGATCATAATAATAAAAG
DNA 2: CTTTTATTATTATGATCTTTTTTTATGGGA
B4: CitGS1 promoter probe mutant (dsDNA)
DNA 1: GCACACCATCTCAAAAAGGTGGTAATTTTG
DNA 2: CAAAATTACCACCTTTTTGAGATGGTGTGC
B5: CitIDH1 promoter probe mutant (dsDNA)
DNA 1: CATTAAATTCCATTTTTTCTAATATG
DNA 2: CATATTAGAAAAAATGGAATTTAATG
B6: CitACO3 promoter probe mutant (dsDNA)
DNA 1: TCCCATAAAAAACCCCCCTAATAATAAAAG
DNA 2: CTTTTATTATTAGGGGGGTTTTTTATGGGA

target: T1, CitGATA7; test: EMSA; attenuated dose-dependently by unlabeled WT probe; LightShift Chemiluminescent EMSA kit (Thermo), manufacturer's instructions; buffer, salt, pH and temperature not stated; details: protein: recombinant; tags: His (pET-32a); label: 3'-biotin (both strands); blunt

Binding result, binds:
B1
B2
B3

target: T1, CitGATA7; test: EMSA; LightShift Chemiluminescent EMSA kit (Thermo), manufacturer's instructions; buffer, salt, pH and temperature not stated; details: protein: recombinant; tags: His (pET-32a); label: 3'-biotin (both strands); blunt

Binding result, no binding:
B4
B5
B6
